This passage reports binding result and Kd results from patent US20260347441 (published 2026).

The target in one test is polatuzumab vedotin (humanized). Put plainly: SPR.
Another test concerns the target human serum albumin (human, UniProt P02768). Put plainly: SPR.

polatuzumab vedotin (humanized), sequence (VH, as listed by the source, chain 1 of 2): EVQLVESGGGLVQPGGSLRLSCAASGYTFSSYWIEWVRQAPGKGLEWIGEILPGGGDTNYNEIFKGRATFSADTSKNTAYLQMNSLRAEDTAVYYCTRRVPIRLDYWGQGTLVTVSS
polatuzumab vedotin (humanized), sequence (VL, as listed by the source, chain 2 of 2): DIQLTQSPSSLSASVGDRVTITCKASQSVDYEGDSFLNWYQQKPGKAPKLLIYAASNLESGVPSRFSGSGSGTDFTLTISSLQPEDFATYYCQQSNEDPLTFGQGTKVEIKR

B1: ABC3315 (antibody, V domains shown)
VH: EVQLVESGGGLVKPGGSLKLSCAASGFTFSGYAMSWFRQAPEKRLEWVATISSGGSYTYYLDSVKGRFTISRDNSKNTLYLQMSSLRSEDTAVYYCLASLITTDYFEYWGQGTLVTVSS
VL: DIVMTQSPSSLSASVGDRVTITCRASQDVGTAVAWYQQKPGQSPKLLIYWASTRHTGVPDRFSGSGSGTDFTLTISGLQSEDEADYFCQQYSNYPYTFGGGTKLEIKR
modifications: peg12-biotin conjugated, immobilized on streptavidin; vc-MMAE conjugate (ADC)
For B1, the binding result in the test with polatuzumab vedotin is “no binding”.

B2: ABC3315-WEDD (antibody, V domains shown)
VH: EVQLVESGGGLVKPGGSLKLSCAASGFTFSGYAMSWFRQAPEKRLEWVATISSGGSYTYYLDSVKGRFTISRDNSKNTLYLQMSSLRSEDTAVYYCLASLITTDYFEYWGQGTLVTVSS
VL: DIVMTQSPSSLSASVGDRVTITCRASQDVGTAVAWYQQKPGQSPKLLIYWASTRHTGVPDRFSGSGSGTDFTLTISGLQSEDEADYFCQQYSNYPYTFGGGTKLEIKR
Usually Kd stands for the equilibrium constant for the complex coming apart. A high value points to lower affinity. B2: in the test with human serum albumin, the Kd came to 2.34 µM.

B3: ABC3315-WE (antibody, V domains shown)
VH: EVQLVESGGGLVKPGGSLKLSCAASGFTFSGYAMSWFRQAPEKRLEWVATISSGGSYTYYLDSVKGRFTISRDNSKNTLYLQMSSLRSEDTAVYYCLASLITTDYFEYWGQGTLVTVSS
VL: DIVMTQSPSSLSASVGDRVTITCRASQDVGTAVAWYQQKPGQSPKLLIYWASTRHTGVPDRFSGSGSGTDFTLTISGLQSEDEADYFCQQYSNYPYTFGGGTKLEIKR
The molecule B3 showed a Kd with human serum albumin of 10.5 µM.
